{
  "source": "patent US9327022",
  "about": "(NATIONAL RESEARCH COUNCIL OF CANADA, dated 2016)",
  "binders": {"B1": {"name": "BSA8 (VHH)", "VHH": "QVKLEESGGGLAQAGGSLRLSCAASERTFIRYTIGWFRQAPGKEREFVGRVNWSGGDTYYADSVKGRFTISRDNAKTTVTLQMSSLKPEDTAVYSCAASPKWSEIPREYIYWGPGTQVTVSS", "notes": "also called sdAb BSA8; pBSA8 product"}, "B2": {"name": "BSA16 (VHH)", "VHH": "QVKLEESGGGLVQAGGSLRLSCAPSGRTFRTWRMGWFRQAPGKEREFVAAINLNTGNTYYVDSVKGRFTISGDYAKNTLYLQMNSLKPEDTAVYFCAARSPDSDYVPLSSIDYQYWGQGTQVTVSS", "notes": "also called sdAb BSA16; pBSA16 product"}, "B3": {"name": "BSA12 (VHH)", "VHH": "QVKLEESGGGLVQVGDSLRLSCAASGRTFSNYTMAWFRQFPGKEREFVAVVSRGGGATDYADSVKGRFTISRDNAKNTMYLQMNSLKTDTAVYYCAAGTDLSYYYSTKKWAYWGQGTQVTVSS", "notes": "also called sdAb BSA12; pBSA12 product"}},
  "key": {"bovine serum albumin [1]": {"biological_target": "T1, bovine serum albumin (bovine, UniProt P02769 25-607)", "T1 construct": "also called BSA; Bovine albumin", "T1 sequence (P02769 25-607 limits assumed)": "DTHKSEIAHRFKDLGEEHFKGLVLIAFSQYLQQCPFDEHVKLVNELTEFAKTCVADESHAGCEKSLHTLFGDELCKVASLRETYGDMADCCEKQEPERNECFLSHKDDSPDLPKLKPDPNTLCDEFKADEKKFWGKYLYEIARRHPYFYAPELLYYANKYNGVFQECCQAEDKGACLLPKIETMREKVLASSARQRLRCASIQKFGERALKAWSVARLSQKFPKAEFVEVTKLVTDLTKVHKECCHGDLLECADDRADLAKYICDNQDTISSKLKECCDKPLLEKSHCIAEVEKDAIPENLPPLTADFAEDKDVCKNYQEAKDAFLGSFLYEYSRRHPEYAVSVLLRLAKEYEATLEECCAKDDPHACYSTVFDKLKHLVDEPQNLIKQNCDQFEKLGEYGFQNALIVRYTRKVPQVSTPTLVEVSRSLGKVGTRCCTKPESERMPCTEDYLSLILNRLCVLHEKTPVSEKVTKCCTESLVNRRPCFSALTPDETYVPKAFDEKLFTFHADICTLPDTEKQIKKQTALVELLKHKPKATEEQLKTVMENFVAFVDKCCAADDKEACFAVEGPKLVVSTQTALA", "test": "SPR (Biacore 3000), immobilized BSA", "description": "(§1) 1700 RUs of BSA (Sigma) were immobilized on research grad CM5-sensorchip (BIACORE). Ethanolamin blocked surface was used as a reference. Immobilizations were carried out at the protein concentrations of 50 µg/ml in 10 mM acetate pH 4.5 using amin coupling kit supplied by the manufacturer. Antibodies were passed through Superdex 75™ (GE Healthcare) column to separate monomer prior to BIACORE analysis.\n(§2) In all instances, analyses were carried out at 25 C in HBS-E buffer (10 mM HEPES, 150 mM NaCl, and 3 mM EDTA, pH 7.4) supplemented with 0.005% surfactant P20 at a flow rate of 20 µl/min. The surfaces were regenerated with 100 mM HCl (3 seconds). Data were analyzed with BIAevaluation 4.1 software."}, "bovine serum albumin [2]": {"biological_target": "T1, bovine serum albumin", "test": "SPR (Biacore 3000), immobilized BSA", "remark": "listed apart in the source", "description": "as §1, §2"}, "human serum albumin [3]": {"biological_target": "T2, human serum albumin (human, UniProt P02768 25-609)", "T2 construct": "also called Human albumin", "T2 sequence (P02768 25-609 limits assumed)": "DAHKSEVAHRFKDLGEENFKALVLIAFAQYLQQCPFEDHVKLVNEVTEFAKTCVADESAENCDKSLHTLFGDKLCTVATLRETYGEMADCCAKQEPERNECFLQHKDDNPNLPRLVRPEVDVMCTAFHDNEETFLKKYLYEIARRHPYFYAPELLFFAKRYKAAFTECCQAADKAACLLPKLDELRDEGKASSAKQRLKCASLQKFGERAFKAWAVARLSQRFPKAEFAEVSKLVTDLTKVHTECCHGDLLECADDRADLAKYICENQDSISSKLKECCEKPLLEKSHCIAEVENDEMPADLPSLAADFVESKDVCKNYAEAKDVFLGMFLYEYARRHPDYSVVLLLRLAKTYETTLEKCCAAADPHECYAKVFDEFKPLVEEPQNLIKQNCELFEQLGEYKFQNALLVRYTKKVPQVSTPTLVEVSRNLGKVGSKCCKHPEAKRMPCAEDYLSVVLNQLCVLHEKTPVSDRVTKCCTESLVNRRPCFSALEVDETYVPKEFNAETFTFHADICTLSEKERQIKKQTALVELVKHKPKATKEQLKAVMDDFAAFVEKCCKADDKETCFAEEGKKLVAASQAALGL", "test": "SPR (Biacore 3000), immobilized albumin; lower bound of the printed KD range"}, "bovine serum albumin [4]": {"biological_target": "T1, bovine serum albumin", "test": "SPR (Biacore 3000), immobilized BSA, extended dissociation", "description": "as §1, §2\n(§3) Each binding was performed three times, and the obtained data were reproducible."}, "human serum albumin [5]": {"biological_target": "T2, human serum albumin", "test": "SPR (Biacore 3000), immobilized albumin; upper bound of the printed KD range"}, "guinea pig serum albumin": {"biological_target": "T3, guinea pig serum albumin (guinea pig)", "T3 construct": "also called Guinea pig albumin", "test": "SPR (Biacore 3000), immobilized albumin", "description": "as §1, §2"}, "porcine serum albumin": {"biological_target": "T4, porcine serum albumin (porcine, UniProt P08835 25-607)", "T4 construct": "also called Porcine albumin", "T4 sequence (P08835 25-607 limits assumed)": "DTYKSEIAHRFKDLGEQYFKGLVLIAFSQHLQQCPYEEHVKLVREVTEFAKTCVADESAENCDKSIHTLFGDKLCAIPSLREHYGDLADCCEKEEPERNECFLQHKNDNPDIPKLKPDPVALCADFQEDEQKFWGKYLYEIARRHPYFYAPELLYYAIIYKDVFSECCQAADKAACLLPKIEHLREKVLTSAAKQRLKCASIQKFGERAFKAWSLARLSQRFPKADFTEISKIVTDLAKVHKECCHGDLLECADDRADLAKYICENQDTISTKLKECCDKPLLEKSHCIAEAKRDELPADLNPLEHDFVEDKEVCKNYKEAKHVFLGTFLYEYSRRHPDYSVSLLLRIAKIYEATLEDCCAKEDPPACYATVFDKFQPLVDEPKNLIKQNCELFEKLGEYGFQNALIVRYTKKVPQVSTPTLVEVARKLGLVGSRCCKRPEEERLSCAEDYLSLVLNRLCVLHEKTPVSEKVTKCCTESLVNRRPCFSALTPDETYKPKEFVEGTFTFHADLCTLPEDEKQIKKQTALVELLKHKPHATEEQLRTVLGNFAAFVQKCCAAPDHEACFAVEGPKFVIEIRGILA", "test": "SPR (Biacore 3000), immobilized albumin", "description": "as §1, §2"}, "murine serum albumin": {"biological_target": "T5, murine serum albumin (murine, UniProt P07724 25-608)", "T5 construct": "also called Murine albumin", "test": "SPR (Biacore 3000), immobilized albumin", "description": "as §1, §2"}, "bovine serum albumin [6]": {"biological_target": "T1, bovine serum albumin", "test": "SPR (Biacore 3000), immobilized albumin", "description": "as §1, §2"}, "goat serum albumin": {"biological_target": "T6, goat serum albumin (goat)", "T6 construct": "also called Goat albumin", "T6 sequence (P85295 whole entry, looked up)": "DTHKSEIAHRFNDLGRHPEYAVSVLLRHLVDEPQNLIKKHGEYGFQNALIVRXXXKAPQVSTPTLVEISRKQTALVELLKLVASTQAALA", "test": "SPR (Biacore 3000), immobilized albumin", "description": "as §1, §2"}, "canine serum albumin": {"biological_target": "T7, canine serum albumin (canine, UniProt P49822 25-608)", "T7 construct": "also called Canine albumin", "T7 sequence (P49822 25-608 limits assumed)": "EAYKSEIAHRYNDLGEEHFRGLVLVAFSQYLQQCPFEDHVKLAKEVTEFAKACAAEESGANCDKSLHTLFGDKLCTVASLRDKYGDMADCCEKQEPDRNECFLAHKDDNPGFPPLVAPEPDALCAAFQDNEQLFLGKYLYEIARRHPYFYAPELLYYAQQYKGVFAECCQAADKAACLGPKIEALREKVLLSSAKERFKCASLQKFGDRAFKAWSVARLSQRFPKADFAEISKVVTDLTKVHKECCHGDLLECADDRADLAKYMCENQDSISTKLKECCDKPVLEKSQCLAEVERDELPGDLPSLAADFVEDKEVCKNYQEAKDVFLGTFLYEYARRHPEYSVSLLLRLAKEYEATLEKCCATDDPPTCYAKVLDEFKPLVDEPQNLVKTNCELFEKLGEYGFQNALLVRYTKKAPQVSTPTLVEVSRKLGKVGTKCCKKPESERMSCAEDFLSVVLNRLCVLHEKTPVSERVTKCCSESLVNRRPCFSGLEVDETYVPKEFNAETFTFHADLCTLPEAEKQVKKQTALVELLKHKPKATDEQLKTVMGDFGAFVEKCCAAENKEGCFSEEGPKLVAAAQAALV", "test": "SPR (Biacore 3000), immobilized albumin", "description": "as §1, §2"}, "sheep serum albumin": {"biological_target": "T8, sheep serum albumin (sheep, UniProt P14639 25-607)", "T8 construct": "also called Sheep albumin", "T8 sequence (P14639 25-607 limits assumed)": "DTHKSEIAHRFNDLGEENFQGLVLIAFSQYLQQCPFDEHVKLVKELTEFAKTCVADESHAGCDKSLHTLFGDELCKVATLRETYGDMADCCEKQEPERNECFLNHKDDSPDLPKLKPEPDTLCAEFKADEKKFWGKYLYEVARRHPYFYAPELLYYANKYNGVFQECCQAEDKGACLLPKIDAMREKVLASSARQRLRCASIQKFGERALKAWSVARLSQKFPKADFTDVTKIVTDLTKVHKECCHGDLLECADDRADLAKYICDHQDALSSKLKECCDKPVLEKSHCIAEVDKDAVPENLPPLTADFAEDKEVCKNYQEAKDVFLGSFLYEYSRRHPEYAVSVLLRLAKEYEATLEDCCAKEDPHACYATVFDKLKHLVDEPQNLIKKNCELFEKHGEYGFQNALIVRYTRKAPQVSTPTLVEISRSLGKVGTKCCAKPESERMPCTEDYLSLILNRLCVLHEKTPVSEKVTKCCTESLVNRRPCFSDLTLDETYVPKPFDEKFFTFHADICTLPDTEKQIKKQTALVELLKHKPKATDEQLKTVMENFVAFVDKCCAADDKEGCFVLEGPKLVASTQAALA", "test": "SPR (Biacore 3000), immobilized albumin", "description": "as §1, §2"}, "bovine serum albumin [7]": {"biological_target": "T1, bovine serum albumin", "test": "SPR (Biacore 3000), immobilized BSA, 4 h dissociation time", "description": "as §1, §2, §3"}},
  "data": [
    {"binder": "B1", "values": [
      {"measurement": "Kd", "setting": "bovine serum albumin [1]", "value": "~100", "unit": "nM"},
      {"measurement": "koff", "setting": "bovine serum albumin [2]", "value": 0.005, "unit": "s⁻¹"}
    ]},
    {"binder": "B2", "values": [
      {"measurement": "Kd", "setting": "bovine serum albumin [1]", "value": 280, "unit": "nM"},
      {"measurement": "koff", "setting": "bovine serum albumin [1]", "value": 0.27, "unit": "s⁻¹"},
      {"measurement": "kon", "setting": "bovine serum albumin [1]", "value": "1e+06", "unit": "M⁻¹ s⁻¹"}
    ]},
    {"binder": "B3", "values": [
      {"measurement": "Kd", "setting": "human serum albumin [3]", "value": "> 10000", "unit": "nM"},
      {"measurement": "koff", "setting": "bovine serum albumin [4]", "value": "1e-05", "unit": "s⁻¹"},
      {"measurement": "Kd", "setting": "human serum albumin [5]", "value": "< 500000", "unit": "nM"},
      {"measurement": "Kd", "setting": "guinea pig serum albumin", "value": 730, "unit": "nM"},
      {"measurement": "koff", "setting": "guinea pig serum albumin", "value": 0.6, "unit": "s⁻¹"},
      {"measurement": "kon", "setting": "guinea pig serum albumin", "value": 830000, "unit": "M⁻¹ s⁻¹"},
      {"measurement": "Kd", "setting": "porcine serum albumin", "value": 380, "unit": "nM"},
      {"measurement": "koff", "setting": "porcine serum albumin", "value": 0.22, "unit": "s⁻¹"},
      {"measurement": "kon", "setting": "porcine serum albumin", "value": 680000, "unit": "M⁻¹ s⁻¹"},
      {"measurement": "Kd", "setting": "murine serum albumin", "value": 59, "unit": "nM"},
      {"measurement": "koff", "setting": "murine serum albumin", "value": 0.16, "unit": "s⁻¹"},
      {"measurement": "kon", "setting": "murine serum albumin", "value": "2.7e+06", "unit": "M⁻¹ s⁻¹"},
      {"measurement": "Kd", "setting": "bovine serum albumin [6]", "value": 0.0036, "unit": "nM"},
      {"measurement": "koff", "setting": "bovine serum albumin [6]", "value": "9e-06", "unit": "s⁻¹"},
      {"measurement": "kon", "setting": "bovine serum albumin [6]", "value": "2.5e+06", "unit": "M⁻¹ s⁻¹"},
      {"measurement": "Kd", "setting": "goat serum albumin", "value": 240, "unit": "nM"},
      {"measurement": "koff", "setting": "goat serum albumin", "value": 0.3, "unit": "s⁻¹"},
      {"measurement": "kon", "setting": "goat serum albumin", "value": "1.2e+06", "unit": "M⁻¹ s⁻¹"},
      {"measurement": "Kd", "setting": "canine serum albumin", "value": 1400, "unit": "nM"},
      {"measurement": "Kd", "setting": "sheep serum albumin", "value": 1000, "unit": "nM"},
      {"measurement": "koff", "setting": "bovine serum albumin [7]", "value": "9e-06", "unit": "s⁻¹"},
      {"measurement": "Kd", "setting": "bovine serum albumin [1]", "value": 0.004, "unit": "nM"},
      {"measurement": "kon", "setting": "bovine serum albumin [1]", "value": "2.5e+06", "unit": "M⁻¹ s⁻¹"}
    ]}
  ]
}
